This assay concerns the target synthetic amylospheroid (synthetic ASPD) (UniProt P05067). Nature of the assay: SPR; biotinylated peptide on the chip, ASPD as ligand.

Ends that are not written are not given here.

Three molecules from patent US20130171069A1 can be followed below.

B1: C-terminal biotinylated AAT01 … (peptide)
peptide: HFNWYNLWRVQY-biotin
Molecule B1 registered a Kd of 57.7 nM and a kon of 7640 M⁻¹ s⁻¹.

B2: C-terminal biotinylated AAT03 … (peptide)
peptide: HLNWLSWFPSRH-biotin
In turn, B2 gave a Kd of 88.5 nM.

B3: C-terminal biotinylated AAT02 … (peptide)
peptide: HLNWWHSWYPAR-biotin
As for B3, the dissociation constant (Kd) came out at 82.4 nM.
